The target in experiment [1] is T1, GPC2 antigen (UniProt Q8N158 24-553, limits assumed).
T1 construct: also called glypican-2
T1 sequence (looked up): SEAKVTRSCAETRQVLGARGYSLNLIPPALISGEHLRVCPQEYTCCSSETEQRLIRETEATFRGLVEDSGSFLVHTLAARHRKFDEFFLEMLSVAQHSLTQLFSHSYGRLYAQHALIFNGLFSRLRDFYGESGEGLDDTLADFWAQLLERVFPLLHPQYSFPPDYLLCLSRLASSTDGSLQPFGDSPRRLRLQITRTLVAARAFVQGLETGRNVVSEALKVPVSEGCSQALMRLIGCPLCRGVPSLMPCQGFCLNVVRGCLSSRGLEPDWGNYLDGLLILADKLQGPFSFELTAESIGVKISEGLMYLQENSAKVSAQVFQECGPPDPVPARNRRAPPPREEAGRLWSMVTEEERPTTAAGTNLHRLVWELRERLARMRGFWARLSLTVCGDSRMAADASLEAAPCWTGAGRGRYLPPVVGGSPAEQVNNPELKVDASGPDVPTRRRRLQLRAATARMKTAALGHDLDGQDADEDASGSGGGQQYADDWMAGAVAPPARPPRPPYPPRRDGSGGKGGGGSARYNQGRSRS
In words: flow cytometry of Jurkat T cells expressing the construct, GPC2 binding read in the APC channel; GPC2 concentration not given. The text has this: Shown in FIG. 12 is a flow cytometric analysis of Jurkat T cells expressing CT3 and hCT3 CARs (CT3-CD28HTM and hCT3-1 CD28HTM, respectively) and AbTCRs+CSRs (ART-CT3-CT3 and ART-hCT3-1-hCT3-1, respectively). T cells expressing each of the constructs were capable of binding to GPC2 antigen. Mock T cells not expressing a CAR or AbTCR+CSR were included as a negative control.
A general note: A flow cytometer gives signals particle by particle.

In experiment [2] the target is GPC3 protein (UniProt P51654). In words: flow cytometry of Jurkat T cells expressing the construct, stained with 2.3ng/ml (0.04nM) GPC3-hFc.
Experiment [3] has as its target GPC3 protein (UniProt P51654). In words: flow cytometry of Jurkat T cells expressing the construct, stained with 4.6ng/ml (0.08nM) GPC3-hFc.

B1: ART-hCT3-1-hCT3-1 AbTCR+CSR (other)
chain 1: DVVMTQSPLSLPVTPGEPASISCRASSSVNYIYWYLQKPGQSPQLWIYYTSNLAPGVPDRFSGSGSGTDFTLKISRVEAEDVGVYYCQQFSSSPSTFGQGTKLEIKRSRGGGGSGGGGSGGGGSLEMAQVQLVQSGAEVKKPGASVKVSCKASRFTFTDYNIHWVRQAPGQGLEWIGYINPNNGDIFYKQKFNGRVTLTADKSTSTAYMELSSLTSEDTAVYYCVRSSNIRYTFDRFFDVWGQGTLVTVSSEQKLISEEDLAAATGAPPLGTQPDCNPTPENGEAPASTSPTQSLLVDSQASKTLPIPTSAPVALSSTGKPVLDAGPVLFWVILVLVVVVGSSAFLLCHRRACRKRIRQKLHLCYPVQTSQPKLELVDSRPRRSSTQLRSGASVTEPVAEERGLMSQPLMETCHSVGAAYLESLPLQDASPAGGPSSPRDLPEPRVSTEHTNNKIEKIYIMKADTVIVGTVKAELPEGRGLAGPAEPELEEELEADHTPHYPEQETEPPLGSCSDVMLSVEEEGKEDPLPTAASGK
chain 2: QVQLVQSGAEVKKPGASVKVSCKASRFTFTDYNIHWVRQAPGQGLEWIGYINPNNGDIFYKQKFNGRVTLTADKSTSTAYMELSSLTSEDTAVYYCVRSSNIRYTFDRFFDVWGQGTLVTVSSASTKGPSVFPLAPSSKSTSGGTAALGCLVKDYFPEPVTVSWNSGALTSGVHTFPAVLQSSGLYSLSSVVTVPSSSLGTQTYICNVNHKPSNTKVDKRVEPKSCEVKTDSTDHVKPKETENTKQPSKSCHKPKAIVHTEKVNMMSLTVLGLRMLFAKTVAVNFLLTAKLFFL
chain 3: DVVMTQSPLSLPVTPGEPASISCRASSSVNYIYWYLQKPGQSPQLWIYYTSNLAPGVPDRFSGSGSGTDFTLKISRVEAEDVGVYYCQQFSSSPSTFGQGTKLEIKRTVAAPSVFIFPPSDEQLKSGTASVVCLLNNFYPREAKVQWKVDNALQSGNSQESVTEQDSKDSTYSLSSTLTLSKADYEKHKVYACEVTHQGLSSPVTKSFNRGECPIKTDVITMDPKDNCSKDANDTLLLQLTNTSAYYMYLLLLLKSVVYFAIITCCLLRRTAFCCNGEKS
notes: also called ART-hCT3-hCT3; hCT3 AbTCR+CSR
As for B1, the “percent of cells in the GPC2-binding-positive gate” value in experiment [1] came out at 62.4%.

B2: CT3 CAR (CT3-CD28HTM) (other)
VH: EVQLQQSGPELVKPGASVKMSCKASRFTFTDYNIHWVKQSPGKTLEWIGYINPNNGDIFYKQKFNGKATLTINKSSNTAYMELRSLTSEDSAVYYCVRSSNIRYTFDRFFDVWGTGTTVTVSS
VL: ENVLTQSPAIMSASLGEKVTMSCRASSSVNYIYWYQQKSDASPKLWIYYTSNLAPGVPARFSGSGSGNSYSLTISSMEGEDAATYYCQQFSSSPSTFGTGTKLELK
notes: Only the CT3 VH and VL are tied to the antibody
Regarding B2, in experiment [1], the “percent of cells in the GPC2-binding-positive gate” value is 41.9%.

B3: hCT3 CAR (hCT3-1 CD28HTM) (other)
VH: QVQLVQSGAEVKKPGASVKVSCKASRFTFTDYNIHWVRQAPGQGLEWIGYINPNNGDIFYKQKFNGRVTLTADKSTSTAYMELSSLTSEDTAVYYCVRSSNIRYTFDRFFDVWGQGTLVTVSS
VL: DVVMTQSPLSLPVTPGEPASISCRASSSVNYIYWYLQKPGQSPQLWIYYTSNLAPGVPDRFSGSGSGTDFTLKISRVEAEDVGVYYCQQFSSSPSTFGQGTKLEIK
notes: only hCT3-1 VH and VL are tied to the antibody; also called hCT3-CD28HTM
Consider B3, for which, in experiment [1], the “percent of cells in the GPC2-binding-positive gate” value was 26.5%.

B4: ART-CT3-CT3 AbTCR+CSR (other)
chain 1: ENVLTQSPAIMSASLGEKVTMSCRASSSVNYIYWYQQKSDASPKLWIYYTSNLAPGVPARFSGSGSGNSYSLTISSMEGEDAATYYCQQFSSSPSTFGTGTKLELKRSRGGGGSGGGGSGGGGSLEMAEVQLQQSGPELVKPGASVKMSCKASRFTFTDYNIHWVKQSPGKTLEWIGYINPNNGDIFYKQKFNGKATLTINKSSNTAYMELRSLTSEDSAVYYCVRSSNIRYTFDRFFDVWGTGTTVTVSSEQKLISEEDLAAATGAPPLGTQPDCNPTPENGEAPASTSPTQSLLVDSQASKTLPIPTSAPVALSSTGKPVLDAGPVLFWVILVLVVVVGSSAFLLCHRRACRKRIRQKLHLCYPVQTSQPKLELVDSRPRRSSTQLRSGASVTEPVAEERGLMSQPLMETCHSVGAAYLESLPLQDASPAGGPSSPRDLPEPRVSTEHTNNKIEKIYIMKADTVIVGTVKAELPEGRGLAGPAEPELEEELEADHTPHYPEQETEPPLGSCSDVMLSVEEEGKEDPLPTAASGK
chain 2: EVQLQQSGPELVKPGASVKMSCKASRFTFTDYNIHWVKQSPGKTLEWIGYINPNNGDIFYKQKFNGKATLTINKSSNTAYMELRSLTSEDSAVYYCVRSSNIRYTFDRFFDVWGTGTTVTVSSASTKGPSVFPLAPSSKSTSGGTAALGCLVKDYFPEPVTVSWNSGALTSGVHTFPAVLQSSGLYSLSSVVTVPSSSLGTQTYICNVNHKPSNTKVDKRVEPKSCEVKTDSTDHVKPKETENTKQPSKSCHKPKAIVHTEKVNMMSLTVLGLRMLFAKTVAVNFLLTAKLFFL
chain 3: ENVLTQSPAIMSASLGEKVTMSCRASSSVNYIYWYQQKSDASPKLWIYYTSNLAPGVPARFSGSGSGNSYSLTISSMEGEDAATYYCQQFSSSPSTFGTGTKLELKRTVAAPSVFIFPPSDEQLKSGTASVVCLLNNFYPREAKVQWKVDNALQSGNSQESVTEQDSKDSTYSLSSTLTLSKADYEKHKVYACEVTHQGLSSPVTKSFNRGECPIKTDVITMDPKDNCSKDANDTLLLQLTNTSAYYMYLLLLLKSVVYFAIITCCLLRRTAFCCNGEKS
notes: AbTCR heterodimer and CSR are expressed together on one cell
Take B4: the “percent of cells in the GPC2-binding-positive gate” value in experiment [1] stood at 57.3%.

B5: ART-HN3-HN3 AbTCR+CSR (protein)
chain 1: QVQLVQSGGGLVQPGGSLRLSCAASYFDFDSYEMSWVRQAPGKGLEWIGSIYHSGSTYYNPSLKSRVTISRDNSKNTLYLQMNTLRAEDTATYYCARVNMDRFDYWGQGTLVTVSSEQKLISEEDLAAATGAPPLGTQPDCNPTPENGEAPASTSPTQSLLVDSQASKTLPIPTSAPVALSSTGKPVLDAGPVLFWVILVLVVVVGSSAFLLCHRRACRKRIRQKLHLCYPVQTSQPKLELVDSRPRRSSTQLRSGASVTEPVAEERGLMSQPLMETCHSVGAAYLESLPLQDASPAGGPSSPRDLPEPRVSTEHTNNKIEKIYIMKADTVIVGTVKAELPEGRGLAGPAEPELEEELEADHTPHYPEQETEPPLGSCSDVMLSVEEEGKEDPLPTAASGK
chain 2: QVQLVQSGGGLVQPGGSLRLSCAASYFDFDSYEMSWVRQAPGKGLEWIGSIYHSGSTYYNPSLKSRVTISRDNSKNTLYLQMNTLRAEDTATYYCARVNMDRFDYWGQGTLVTVSSASTKGPSVFPLAPSSKSTSGGTAALGCLVKDYFPEPVTVSWNSGALTSGVHTFPAVLQSSGLYSLSSVVTVPSSSLGTQTYICNVNHKPSNTKVDKRVEPKSCEVKTDSTDHVKPKETENTKQPSKSCHKPKAIVHTEKVNMMSLTVLGLRMLFAKTVAVNFLLTAKLFFL
chain 3: QVQLVQSGGGLVQPGGSLRLSCAASYFDFDSYEMSWVRQAPGKGLEWIGSIYHSGSTYYNPSLKSRVTISRDNSKNTLYLQMNTLRAEDTATYYCARVNMDRFDYWGQGTLVTVSSRTVAAPSVFIFPPSDEQLKSGTASVVCLLNNFYPREAKVQWKVDNALQSGNSQESVTEQDSKDSTYSLSSTLTLSKADYEKHKVYACEVTHQGLSSPVTKSFNRGECPIKTDVITMDPKDNCSKDANDTLLLQLTNTSAYYMYLLLLLKSVVYFAIITCCLLRRTAFCCNGEKS
In the case of B5, the percent of cells in the binding-positive gate in experiment [2] came to 56.9%; in experiment [3], 70.6%.

Source of the values: patent US20250281538A1 (US Dept. of Health and Human Services, published 2025).
